In this experiment the target is T1, full-length GST-tagged SARS-CoV-2 Nucleocapsid (N) protein (SARS-CoV-2, UniProt P0DTC9 1-419).
T1 construct: SARS-CoV-2 Nucleocapsid (N) protein, full length; also called GST-N
The experiment can be described thus: pull-down. Particulars: both partners purified.

B1: UPF2 truncated construct lacking 120 and 45 residues at the N- and C-termini (domain or fragment, human, UniProt Q9HAU5 121-1227, looked up)
chain: MKEKEESIQLHQEAWERHHLRKELRSKNQNAPDSRPEENFFSRLDSSLKKNTAFVKKLKTITEQQRDSLSHDFNGLNLSKYIAEAVASIVEAKLKISDVNCAVHLCSLFHQRYADFAPSLLQVWKKHFEARKEEKTPNITKLRTDLRFIAELTIVGIFTDKEGLSLIYEQLKNIINADRESHTHVSVVISFCRHCGDDIAGLVPRKVKSAAEKFNLSFPPSEIISPEKQQPFQNLLKEYFTSLTKHLKRDHRELQNTERQNRRILHSKGELSEDRHKQYEEFAMSYQKLLANSQSLADLLDENMPDLPQDKPTPEEHGPGIDIFTPGKPGEYDLEGGIWEDEDARNFYENLIDLKAFVPAILFKDNEKSCQNKESNKDDTKEAKESKENKEVSSPDDLELELENLEINDDTLELEGGDEAEDLTKKLLDEQEQEDEEASTGSHLKLIVDAFLQQLPNCVNRDLIDKAAMDFCMNMNTKANRKKLVRALFIVPRQRLDLLPFYARLVATLHPCMSDVAEDLCSMLRGDFRFHVRKKDQINIETKNKTVRFIGELTKFKMFTKNDTLHCLKMLLSDFSHHHIEMACTLLETCGRFLFRSPESHLRTSVLLEQMMRKKQAMHLDARYVTMVENAYYYCNPPPAEKTVKKKRPPLQEYVRKLLYKDLSKVTTEKVLRQMRKLPWQDQEVKDYVICCMINIWNVKYNSIHCVANLLAGLVLYQEDVGIHVVDGVLEDIRLGMEVNQPKFNQRRISSAKFLGELYNYRMVESAVIFRTLYSFTSFGVNPDGSPSSLDPPEHLFRIRLVCTILDTCGQYFDRGSSKRKLDCFLVYFQRYVWWKKSLEVWTKDHPFPIDIDYMISDTLELLRPKIKLCNSLEESIRQVQDLEREFLIKLGLVNDKDSKDSMTEGENLEEDEEEEEGGAETEEQSGNESEVNEPEEEEGSDNDDDEGEEEEEENTDYLTDSNKENETDEENTEVMIKGGGLKHVPCVEDEDFIQALDKMMLENLQQRSGESVKVHQLDVAIPLHLKSQLRKGPPLGGGEGEAESADTMPFVMLTRKGNKQQFKILNVPMSSQLAANHWNQQQAEQEERMRMKKLTLDINERQEQED
notes: human UPF2 lacking 120 residues at the N-terminus and 45 residues at the C-terminus
B1: the binding result is given as “binds”.

The values above are taken from PMC11602160, “Modulation of UPF1 catalytic activity upon interaction of SARS-CoV-2 Nucleocapsid protein with factors involved in nonsense mediated-mRNA decay” (Nucleic Acids Research, 2024).
